Source: patent US20230293738A1 (Y MABS THERAPEUTICS, published 2023)
Several values for one entry are separate records, joined by “and”; a condition that tells them apart may be missing. Equal values may be shown once. Read-outs that look alike come from different tables or passages of the source.

Columns and labels:
[1] = molecular target: T1, human 2Ig-B7H3 (B7H3-2Ig-His) (human, UniProt Q5ZPR3 29-466); test: SPR, Biacore T200, 2Ig-B7H3-His on CM5 chip, 1:1 fit
T1 construct: Recombinant His-tagged protein immobilised on a CM5 chip; also called 21g-B7H3; B7H3-21g-His; not shown: His tag
T1 sequence: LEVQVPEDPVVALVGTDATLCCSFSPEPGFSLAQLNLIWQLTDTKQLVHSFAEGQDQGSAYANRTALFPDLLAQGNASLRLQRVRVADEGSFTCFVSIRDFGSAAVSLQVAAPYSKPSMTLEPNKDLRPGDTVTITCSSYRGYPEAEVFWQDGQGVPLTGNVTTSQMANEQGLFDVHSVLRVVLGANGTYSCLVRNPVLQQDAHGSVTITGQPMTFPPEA
Experimental: (§1) Both human B7H3 41g and 21g proteins were dissolved in PBS (Phosphate-Buffered Saline) to make 0.1 mg/ml stock solution and stored in −80° C. B7-H3 proteins were immobilized onto the CM5 sensor chip using Amine Coupling Kit. Both proteins were diluted to 10 ug/ml with 10 mM Sodium acetate, pH 5.0. […] A blank immobilized surface was used as a control
(§2) Binding Assays: [0143] 1. Antibodies were diluted in HBS-EP buffer (10 mM HEPES, 150 mM NaCl, 3 mM EDTA, 0.05% Surfactant P20, pH 7.4) at varying concentrations (25-50-100-200-400 nM) prior to analysis. […] 2. Samples (60 ul) were injected over the sensor surface at a flow rate of 30 ul/min over 2 min. [0145] 3. Following completion of the association phase, dissociation was monitored in HBS-EP buffer for 10 min at the same flow rate. […] 4. At the end of each cycle, the surface was regenerated using 10 mM NaOH at a flow rate of 50 ul/min over 2×15 sec.
(§3) The data were analyzed by the 1:1 fitting model and default parameter setting for the rate constants using the Biacore T200 Evaluation Software, and the apparent association on rate constant (kon, ka), dissociation off rate constant (koff, kd) and equilibrium dissociation constant (KD=kd/ka) were calculated.

recombinant mouse B7-H3 = molecular target: T2, recombinant mouse B7-H3 (mouse, UniProt Q8VE98 29-244, limits assumed); test: SPR, triplicate
T2 sequence (looked up): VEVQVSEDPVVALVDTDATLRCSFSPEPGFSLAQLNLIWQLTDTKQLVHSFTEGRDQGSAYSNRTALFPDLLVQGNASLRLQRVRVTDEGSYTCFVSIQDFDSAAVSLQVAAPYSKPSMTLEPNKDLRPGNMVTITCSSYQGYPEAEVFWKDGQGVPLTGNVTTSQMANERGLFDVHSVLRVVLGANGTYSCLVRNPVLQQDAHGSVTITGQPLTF

recombinant rat B7-H3 = molecular target: T3, recombinant rat B7-H3 (rat, UniProt Q7TPB4 29-244, limits assumed); test: SPR, triplicate
T3 sequence (looked up): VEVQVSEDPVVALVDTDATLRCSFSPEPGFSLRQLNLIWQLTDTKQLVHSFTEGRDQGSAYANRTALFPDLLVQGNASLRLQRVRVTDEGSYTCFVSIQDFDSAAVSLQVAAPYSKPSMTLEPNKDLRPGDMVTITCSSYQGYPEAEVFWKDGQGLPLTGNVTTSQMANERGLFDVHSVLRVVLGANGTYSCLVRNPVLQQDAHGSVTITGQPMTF

[2] = molecular target: T1, human 2Ig-B7H3 (B7H3-2Ig-His); test: SPR, Biacore T200, 2Ig-B7H3-His on CM5 chip, 1:1 fit; * beyond fitting limits; unconjugated 8H9, lot S219, Table 3 run
[3] = molecular target: T1, human 2Ig-B7H3 (B7H3-2Ig-His); test: SPR, Biacore T200, 2Ig-B7H3-His on CM5 chip, 1:1 fit; unconjugated 8H9, lot S219, Table 3 run
[4] = molecular target: T1, human 2Ig-B7H3 (B7H3-2Ig-His); test: SPR, Biacore T200, 2Ig-B7H3-His on CM5 chip, 1:1 fit; remark: listed apart in the source
Experimental: as §1, §3

[5] = molecular target: T1, human 2Ig-B7H3 (B7H3-2Ig-His); test: SPR, Biacore T200, 2Ig-B7H3-His on CM5 chip, 1:1 fit; * beyond fitting limits
Experimental: as §1, §2

[6] = molecular target: T1, human 2Ig-B7H3 (B7H3-2Ig-His); test: SPR, Biacore T200, 2Ig-B7H3-His on CM5 chip, 1:1 fit; unconjugated 8H9, lot PHB800, Table 3 run
[7] = molecular target: T1, human 2Ig-B7H3 (B7H3-2Ig-His); test: SPR, Biacore T200, 2Ig-B7H3-His on CM5 chip, 1:1 fit; unconjugated 8H9, lot S219, Table 5 run
Experimental: as §1, §2

recombinant monkey B7-H3 = molecular target: T4, recombinant monkey B7-H3 (monkey); test: SPR, triplicate
T4 chain: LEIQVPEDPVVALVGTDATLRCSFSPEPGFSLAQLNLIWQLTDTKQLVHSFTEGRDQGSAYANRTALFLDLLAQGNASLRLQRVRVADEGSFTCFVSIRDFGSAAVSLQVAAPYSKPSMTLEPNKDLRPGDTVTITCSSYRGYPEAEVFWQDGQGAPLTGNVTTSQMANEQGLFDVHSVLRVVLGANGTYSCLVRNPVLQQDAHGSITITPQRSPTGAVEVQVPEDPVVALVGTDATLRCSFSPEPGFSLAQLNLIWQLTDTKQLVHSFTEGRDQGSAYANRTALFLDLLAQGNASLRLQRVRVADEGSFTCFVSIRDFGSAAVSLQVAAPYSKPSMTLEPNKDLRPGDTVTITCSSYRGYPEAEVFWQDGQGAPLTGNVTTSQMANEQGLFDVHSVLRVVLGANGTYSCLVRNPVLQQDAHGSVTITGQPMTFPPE

[8] = molecular target: recombinant human B7-H3 (Example 3) (human) (UniProt Q5ZPR3); test: SPR, triplicate
[9] = molecular target: T1, human 2Ig-B7H3 (B7H3-2Ig-His); test: SPR, Biacore T200, 2Ig-B7H3-His on CM5 chip, 1:1 fit; unconjugated 8H9, lot P76501A, Table 5 run

Kd [1]: 0.0123 nM
kon [1]: 43400 M⁻¹ s⁻¹ and 46200 M⁻¹ s⁻¹ and 40900 M⁻¹ s⁻¹
binding result (recombinant mouse B7-H3): no binding (tested: 3 µg/mL)
binding result (recombinant rat B7-H3): no binding (tested: 3 µg/mL)
koff [2]: < 1e-05 s⁻¹
Kd [3]: < 0.244 nM
kon [4]: 53800 M⁻¹ s⁻¹ and 47100 M⁻¹ s⁻¹
t ½ [4]: 72.9 days and 169 days
koff [5]: 1.1e-07 s⁻¹
Kd [6]: < 0.23 nM
Kd [7]: < 0.212 nM
Kd (recombinant monkey B7-H3): 0.0016 nM
koff (recombinant monkey B7-H3): 1e-05 s⁻¹
kon (recombinant monkey B7-H3): 6.5e+06 M⁻¹ s⁻¹
Kd [8]: 0.0011 nM
koff [8]: 1e-05 s⁻¹
kon [8]: 8.9e+06 M⁻¹ s⁻¹
Kd [9]: < 0.186 nM
B1: 8H9 antibody comprising a light chain according to SEQ ID No.: 2 and heavy chain according to SEQ ID No.: 1 (antibody, mouse IgG1, kappa, V domains shown)
VH: QVQLQQSGAELVKPGASVKLSCKASGYTFTNYDINWVRQRPEQGLEWIGWIFPGDGSTQYNEKFKGKATLTTDTSSSTAYMQLSRLTSEDSAVYFCARQTTATWFAYWGQGTLVTVSA
VL: DIVMTQSPATLSVTPGDRVSLSCRASQSISDYLHWYQQKSHESPRLLIKYASQSISGIPSRFSGSGSGSDFTLSINSVEPEDVGVYYCQNGHSFPLTFGAGTKLELKR
notes: Unconjugated mouse IgG1 mAb; also called m8H9; murine 8H9
